# Results from article PMC9279676, “ERK2 MAP kinase regulates SUFU binding by multisite phosphorylation of GLI1” (Life Science Alliance, 2022).
# B1: GLI1_(1-232), wild type, 35S-radiolabeled [modified: [35S]-methionine label; [35S]-methionine label] [human] / GST-SUFU (fusion of GST to full-length human SUFU) [human] (parent complex)
# chain 1: MFNSMTPPPISSYGEPCCLRPLPSQGAPSVGTEGLSGPPFCHQANLMSGPHSYGPARETNSCTEGPLFSSPRSAVKLTKKRALSISPLSDASLDLQTVIRTSPSSLVAFINSRCTSPGGSYGHLSIGTMSPSLGFPAQMNHQKGPSPSFGVQPCGPHDSARGGMIPHPQSRGPFPTCQLKSELDMLVGKCREEPLEGDMSSPNSTGIQDPLLGMLDGREDLEREEKREPESV
# chain 2: MAELRPSGAPGPTAPPAPGPTAPPAFASLFPPGLHAIYGECRRLYPDQPNPLQVTAIVKYWLGGPDPLDYVSMYRNVGSPSANIPEHWHYISFGLSDLYGDNRVHEFTGTDGPSGFGFELTFRLKRETGESAPPTWPAELMQGLARYVFQSENTFCSGDHVSWHSPLDNSESRIQHMLLTEDPQMQPVQTPFGVVTFLQIVGVCTEELHSAQQWNGQGILELLRTVPIAGGPWLITDMRRGETIFEIDPHLQERVDKGIETDGSNLSGVSAKCAWDDLSRPPEDDEDSRSICIGTQPRRLSGKDTEQIRETLRRGLEINSKPVLPPINPQRQNGLAHDRAPSRKDSLESDSSTAIIPHELIRTRQLESVHLKFNQESGALIPLCLRGRLLHGRHFTYKSITGDMAITFVSTGVEGAFATEEHPYAAHGPWLQILLTEEFVEKMLEDLEDLTSPEEFKLPKEYSWPEKKLKVSILPDVVFDSPLH
# Variants of: B1
# Assay: GST-SUFU pull-down binding assay with 35S-radiolabeled in vitro-translated GLI1; parent: 8 nM
row,Variant,Kd [nM]
1,chain 1 MFNSMTPPPISSYGEPCCLRPLPSQGAPSVGTEGLSGPPFCHQANLMSGPHSYGPARETNSCTEGPLFSSPRSAVKLTKKRALSISPLSDASLDLQTVIRTSPSSLVAFINSRCTSPGGSYGHLSIGTMEPSLGFPAQMNHQKGPSPSFGVQPCGPHDSARGGMIPHPQSRGPFPTCQLKSELDMLVGKCREEPLEGDMSSPNSTGIQDPLLGMLDGREDLEREEKREPESV [chain 1 S130E],21
2,chain 1 MFNSMTPPPISSYGEPCCLRPLPSQGAPSVGTEGLSGPPFCHQANLMSGPHSYGPARETNSCTEGPLFSSPRSAVKLTKKRALSISPLSDASLDLQTVIRTEPSSLVAFINSRCTSPGGSYGHLSIGTMSPSLGFPAQMNHQKGPSPSFGVQPCGPHDSARGGMIPHPQSRGPFPTCQLKSELDMLVGKCREEPLEGDMSSPNSTGIQDPLLGMLDGREDLEREEKREPESV [chain 1 S102E],67
